Entries after “also recorded” stand apart in the source; their conditions may differ.
Test system: Staphylococcus aureus ATCC 6538
Assay: Modified ASTM E2315 test of low pH therapeutic with AMPs, acid neutralized after one minute
Format: cell-based
Text: Since the reaction speed of the two different MOAs are different, a modified test protocol was developed, which is summarized below. • a. […] Heretofore, it has been believed that AMPs are unstable in low pH environments. Mixture of dry powder immediately prior to use is believed to address concerns regarding minimization of in vitro stability. • b. The prepared AMP solution was then mixed with the bacteria containing media. After one minute the acid solution was neutralized. This simulates the short antimicrobial period for the elevated proton concentration in vivo. The bacteria population was measured to determine efficacy after one minute. • c. The AMPs retained in the solution are not expected to stop their antimicrobial activity after acid neutralization, so a second bacteria population measurement was made after 24 hours. [table]

B1: lactoferrin (protein, UniProt P02788 20-710, looked up)
Lactotransferrin: GRRRSVQWCAVSQPEATKCFQWQRNMRKVRGPPVSCIKRDSPIQCIQAIAENRADAVTLDGGFIYEAGLAPYKLRPVAAEVYGTERQPRTHYYAVAVVKKGGSFQLNELQGLKSCHTGLRRTAGWNVPIGTLRPFLNWTGPPEPIEAAVARFFSASCVPGADKGQFPNLCRLCAGTGENKCAFSSQEPYFSYSGAFKCLRDGAGDVAFIRESTVFEDLSDEAERDEYELLCPDNTRKPVDKFKDCHLARVPSHAVVARSVNGKEDAIWNLLRQAQEKFGKDKSPKFQLFGSPSGQKDLLFKDSAIGFSRVPPRIDSGLYLGSGYFTAIQNLRKSEEEVAARRARVVWCAVGEQELRKCNQWSGLSEGSVTCSSASTTEDCIALVLKGEADAMSLDGGYVYTAGKCGLVPVLAENYKSQQSSDPDPNCVDRPVEGYLAVAVVRRSDTSLTWNSVKGKKSCHTAVDRTAGWNIPMGLLFNQTGSCKFDEYFSQSCAPGSDPRSNLCALCIGDEQGENKCVPNSNERYYGYTGAFRCLAENAGDVAFVKDVTVLQNTDGNNNEAWAKDLKLADFALLCLDGKRKPVTEARSCHLAMAPNHAVVSRMDKVERLKQVLLHQQAKFGRNGSDCPDKFCLFQSETKNLLFNDNTECLARLHGKTTYEKYLGPQYVAGITNLKKCSTSPLLEACEFLRK
With B1 the “1-min Efficacy (log)” value (bacteria population after one minute, then acid neutralized, no soiling, single-replicant) was 0.05 log, the “Efficacy on S. aureus, conclusion in words” value (comparison of Table 3 examples) was “minimal efficacy; also recorded: not effective” and the “24-hour Efficacy (log)” value (second bacteria population measurement after 24 hours, acid neutralized after one minute) was 0.16 log.

From patent publication US20240000899A1, “THERAPEUTIC USEFUL AGAINST ANTIMICROBIAL RESISTANT AGENTS” (priority 2022, published 2024)
